Laboratory results taken from patent publication US8729028B2, “Noggin-derived peptide and use thereof” (Caregen Co., Ltd., priority 2009, dated 2014).
Where no end group is shown, it is not given here. The star is where a group is joined. Biotin = O=C1N[C@H]2[C@H](CS[C@H]2CCCCC(=O)*)N1

Assays:
rh-BMP4 protein [1] = target: T1, rh-BMP4 protein (Homo sapiens, UniProt P12644); assay: Streptavidin chromatography with SDS-PAGE and western blot (immunobinding to BMP4); assay type: binding; conditions: streptavidin column, elution with NaCl, western blot with anti-BMP4 antibody (FIG. 8b)
T1 construct: purchased R&D Systems, Inc., USA
T1 sequence (P12644 293-408): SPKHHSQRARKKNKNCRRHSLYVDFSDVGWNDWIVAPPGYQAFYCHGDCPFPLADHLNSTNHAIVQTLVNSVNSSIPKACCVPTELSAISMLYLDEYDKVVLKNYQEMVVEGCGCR
Procedure: The N-terminus of the peptide prepared in Synthesis Example was modified with biotin (Sigma, USA). For streptavidin chromatography, the biotinylated peptide was loaded in a column packed with streptavidin-attached resin and equilibrated with 20 mM sodium phosphate buffer. Then, after flowing rh-BMP4 protein (R&D Systems, Inc., USA) through the column, 200 mM sodium phosphate buffer was flown to flush unbound protein and the protein bound to the biotinylated peptide was fractionated by eluting with 0.2 M NaCl. The eluate was analyzed by SDS-PAGE (see FIG. 8a) and it was confirmed whether the BMP4 protein binds with the biotinylated peptide by western blotting using anti-BMP4 antibody (Santa Cruz, USA) (see FIG. 8b).

[2] = Thermal stability at 37° C. in phosphate buffer, HPLC quantification; assay type: physicochemical; conditions: 0.11 mg/mL phosphate buffer, days 0-70, compared with reference Noggin (FIG. 9)
Procedure: The peptide prepared in Synthesis Example and a reference growth factor (Noggin, FGF-10) purchased from NIBSC (UK) were prepared to 0.11 mg/mL phosphate buffer solutions. 1 mL of each prepared solution was put in a glass vial and kept at 37° C. The solution was sampled on days 0, 5, 10, 20, 30, 40 and 70. After centrifugation to remove any denatured peptide or protein, the supernatant was subjected to HPLC for quantification (FIG. 9).

BMP-4 = target: T2, BMP-4 (Homo sapiens, UniProt P12644); assay: Melanin production in α-MSH-induced, BMP-4-treated melanocytes (antagonistic activity against BMP-4); assay type: cell-based; conditions: for melanin production: C57BL/6 mouse melanocytes, 200 μg/mL α-MSH, 1 μg/mL BMP-4, cultured 3 days, observed with naked eyes (FIG. 5)
T2 construct: purchased R&D Systems, Inc., USA
T2 sequence (P12644 293-408): T1 sequence (P12644 293-408)
Procedure: In order to investigate the antagonistic activity of the peptide synthesized in Synthesis Example against the growth factor BMP-4, C57BL/6 mouse melanocytes (Jung Ang Lab. Animal, Korea) were cultured and melanin production was induced with α-melanocyte stimulating hormone (α-MSH; Sigma). Then, after treating with BMP-4 (R&D Systems, Inc., USA) and then immediately with the synthesized peptide at different concentrations, it was checked whether the melanin production inhibited by BMP was activated again. The mouse melanocytes were cultured using DMEM (Sigma) containing 10% FBS (Sigma) at 37° C. under 5% CO2. After culturing the cells on a 24-well plate at 1×10^5 cells/well and confirming attachment of the cells, the cells were treated only with a solvent (control), with 200 μg/mL α-MSH (positive control) or with 1 μg/mL BMP-4. Then, the cells were treated with the peptide of SEQ ID NO: 1. After adding the test substance to each dish, the cells were cultured for 3 days. The test substance had been prepared by dissolving the ingredients in a solvent and diluting to the test concentration using a 5:3:2 mixture solvent of propylene glycol:ethanol:purified water. After removing the medium by centrifugation, the production of melanin could be observed with naked eyes.
For more accurate measurement, cells were washed with PBS and lysed with 1 N sodium hydroxide. Then, after measuring absorbance at 400 nm, inhibition of melanin production was calculated according to the Dooley's method (Dooley, T. P. et al., Skin Pharmacol. 7: 188-200 (1994)), and the result was shown in FIG. 6. The result shown in FIG. 6 coincides with that of FIG. 5.

HaCaT cells = assay: Laminin and hyaluronic acid production (ELISA kits); assay type: cell-based; conditions: 72 hours after treatment
Procedure: HaCaT cells cultured for 48 hours were treated with the peptide synthesized in Synthesis Example. 72 hours later, the level of laminin and hyaluronic acid was measured as an indicator to show the improvement in skin wrinkles. The measurement was made using a laminin ELISA kit (Takara, Japan) and a hyaluronic acid ELISA kit (Takara, Japan).

C57BL/6 mouse = assay: Hair growth on depilated back skin of mouse; assay type: in vivo; conditions: C57BL/6 mouse back, 10 μL of 1 μg/μL on days 0, 2 and 4, observed for 10 days, against PBS (FIG. 10)
Procedure: In order to investigate the hair growth promoting effect of the peptide synthesized in Synthesis Example, hair of the back of a mouse (C57BL/6, Jung Ang Lab. Animal, Korea) was partially removed using hair removal cream. 10 μL of the peptide of SEQ ID NO: 1 (1 μg/μL) was administered or applied on the upper portion of the back of the mouse, and 10 μL of PBS was administered or applied on the lower portion of the back of the mouse, on days 0, 2 and 4.

NIH3T3 fibroblasts = assay: SRB colorimetric assay of cellular growth, fibroblasts; assay type: cell-based; conditions: NIH3T3, peptide 100 ng/mL, 72 hours, SRB absorbance 590 nm and microscopy (FIGS. 2b, 3)
Procedure: (§1) To analyze the growth factor-like effect of the peptide synthesized in Synthesis Example, sulforhodamine B (SRB) calorimetric assay was carried out using HaCaT keratinocytes (Korean Cell Line Bank) and NIH3T3 fibroblasts (Korean Cell Line Bank) according to Rizzino et al.'s method (Rizzino et al. Cancer Res. 48: 4266 (1988)).
(§2) HaCaT keratinocytes and NIH3T3 fibroblasts were cultured respectively in a 250-mL tissue culture flask in Eagle's minimal essential media (EMEM; Gibco, U.S.A.) containing 10% fetal bovine serum (FBS; Sigma). The cultured cells were treated with 0.25% trypsin solution to detach the cells from the bottom of the culture flask and centrifuged to collect cell pellets. They were resuspended in FBS-free EMEM and added to each well of a 96-well tissue culture plate, with 4×10^3 cells per well. The cells were cultured under 7% CO2 for 24 hours at 37° C. 24 hours later, the medium was changed with fresh, FBS-containing medium and the cells were incubated for 72 hours under the same conditions as described above with blank sample as reference or with the sterilized synthetic peptide (100 ng/mL) dissolved in water and 10% DMSO. After removing the supernatant, the cells were washed once with phosphate buffered saline (PBS). […] In addition, absorbance was measured at 590 nm to analyze cell proliferation.

HaCaT keratinocytes = assay: SRB colorimetric assay of cellular growth, keratinocytes; assay type: cell-based; conditions: peptide 100 ng/mL, 72 hours, SRB absorbance 590 nm and microscopy (FIGS. 2a, 3)
Procedure: as §1, §2

rh-BMP4 protein [3] = target: T1, rh-BMP4 protein; assay: Biacore binding of peptide to immobilised BMP4; conditions: CM5 sensor chip, 6000 RU rh-BMP4, peptide 4-1000 μg/mL (FIG. 7)
Procedure: (§3) In order to investigate whether the peptide synthesized according to the present disclosure binds to the BMP protein, the Biacore instrument allowing the detection of binding between drugs and receptors was used.
(§4) 6000 response units (RU) of rh-BMP4 protein (R&D Systems, Inc., USA) was fixed to a commercially available CM5 sensor chip (Biacore, Sweden) by amination. Then, HBS-EP buffer (Biacore, Sweden) was flown at a rate of 5 μL/min to activate the BMP4 protein on the CM5 sensor chip. After optimization for reaction, the synthesized peptide was flown at different concentrations (1000 μg/mL, 500 μg/mL, 250 μg/mL, 125 μg/mL, 62.5 μg/mL, 31.3 μg/mL, 15.6 μg/mL, 7.8 μg/mL, 4 μg/mL). The binding between BMP4 and the synthetic peptide could be identified from the increase in RU value.

[4] = target: T3, rh-BMP4 protein (R&D Systems, Inc., USA) (human, UniProt P12644 293-408); assay: SPR (Biacore), rh-BMP4 fixed on a CM5 chip, peptide flown at 4-1000 µg/mL
T3 construct: Bought protein; also called BMP protein
T3 sequence (looked up): T1 sequence (P12644 293-408)
Procedure: as §3, §4

Molecule: biotinylated peptide: The N-terminus of the peptide prepared in Synthesis Example was modified with biotin (Biotin-ELIEHGGGRPAD)
- binding of BMP4 protein to peptide (rh-BMP4 protein [1]): bound

Molecule: Glu-Leu-Ile-Glu-His (SEQ ID NO:2)-Linker-Arg-Pro-Ala-Asp (SEQ ID NO:3) peptide (linker=Gly-Gly-Gly) (ELIEHGGGRPAD; listed as Homo sapiens) [SEQ ID NO: 1, noggin-derived peptide]
- thermal stability [2]: much superior thermal stability to the existing noggin peptide
- melanin production (BMP-4): melanin production comparable to that of the α-MSH-treated group
- BMP-4 activity (BMP-4; inferred from restored melanin production in BMP-4-treated mouse melanocytes (FIG. 5)): appropriately inhibits the BMP-4 activity
- production of hyaluronic acid (HaCaT cells; hyaluronic acid ELISA kit (FIG. 4b)): increases the production
- production of laminin (HaCaT cells; laminin ELISA kit (FIG. 4a)): increases the production
- binding of BMP4 protein to peptide (rh-BMP4 protein [1]): very strongly binds
- hair growth (C57BL/6 mouse): effective in promoting hair growth
- growth of fibroblasts (NIH3T3 fibroblasts): promote the growth
- growth of keratinocytes (HaCaT keratinocytes): promote the growth
- binding to BMP4 (increase in RU value) (rh-BMP4 protein [3]): very strong binding ability

Molecule: α-melanocyte stimulating hormone [α-MSH, reference compound]
- melanin production (BMP-4): abrupt increase in melanin production

B1: Glu-Leu-Ile-Glu-His (SEQ ID NO:2)-Linker-Arg-Pro-Ala-Asp (SEQ ID NO:3) peptide (linker=Gly-Gly-Gly) (SEQ ID NO:1) (peptide)
peptide: ELIEHGGGRPAD
notes: Made by solid-phase synthesis; The synthesis text describes an acetylation step with acetic anhydride after the last Fmoc removal; However, the printed theoretical weight of 1250.35 matches the peptide without an acetyl group, so no N-terminal acetyl is entered; also called synthesized peptide
- binding result [4]: binds
